This note sets out measurements from US20250129156A1 (AKESO BIOPHARMA, published 2025).

Assay [1] concerns the target T1, TGF-β1 (human, UniProt P01137 279-390).
T1 construct: Bought protein; also called human TGF-β1; TGF-β1 protein
As to the kind of experiment: competition ELISA vs TGF-βRII-His-Biotin 0.01 µg/mL on coated TGF-β1. On the technique in general: In an ELISA, binding on a coated surface is turned into a signal by an enzyme label.

Assay [2] has as its target T2, TGF-β2 (UniProt P61812 303-414).
T2 construct: Bought protein; also called TGF-β2 protein
T2 sequence (looked up): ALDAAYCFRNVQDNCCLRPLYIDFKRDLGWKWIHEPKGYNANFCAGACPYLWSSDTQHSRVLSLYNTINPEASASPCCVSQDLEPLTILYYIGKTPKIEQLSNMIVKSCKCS
As to the kind of experiment: indirect ELISA, TGF-β2 coated at 2 µg/mL.

Assay [3] addresses T1, TGF-β1. As to the kind of experiment: indirect ELISA, TGF-β1 coated at 1 µg/mL.

B1: TGF-βRII-mFc (Fc fusion, UniProt P37173 23-159, looked up, not shown: a dimerising Fc or GST)
chain: TIPPHVQKSVNNDMIVTDNNGAVKFPQLCKFCDVRFSTCDNQKSCMSNCSITSICEKPQEVCVAVWRKNDENITLETVCHDPKLPYHDFILEDAASPKCIMKEKKKPGETFFMCSCSSDECNDNIIFSEEYNTSNPD
notes: also called TGF-βR2-mFc
As a reminder, the EC50 is the midpoint of the concentration-response curve. As to B1, the figures for the concentration giving a half-maximal response (EC50) in assay [1], in assay [2] and in assay [3] were 6.47 nM, 1.03 nM and 0.356 nM, respectively.
